Laboratory results published in article PMC10716049.

Legend:
RNAPII-CTD = experiment: confocal fluorescence microscopy, AR AD partitioning into preassembled droplets; details: 5 µM RNAPII-CTD, 50 mM NaCl, 10% ficoll, 1 µM AR AD; parent: est. 70; read off a plot
MED1-IDR = experiment: as above; details: 15 µM MED1-IDR, 20 mM NaCl, 10% ficoll, 1 µM AR AD; parent: est. 97; read off a plot

Substance: AR AD WT* 22YtoS
- response (RNAPII-CTD): 25 arb.u.
- response (MED1-IDR): 80 arb.u.
